PMC10247930, “The effects of novel macrocyclic chelates on the targeting properties of the ^68Ga-labeled Gastrin releasing peptide receptor antagonist RM2” (EJNMMI Research, 2023)

Test: in vivo
Parameters: species or system BALB/c nu/nu mice
Settings: male, BALB/c nu/nu, mouse, iv, 2.6 MBq, total radioactivity
Description: Biodistribution. BALB/c nu/nu male mice were implanted subcutaneously with 10 million PC-3 tumor cells, freshly expanded in saline. Biodistribution studies were performed 3 to 4 weeks after tumor cell inoculation when the tumor-bearing mice reached an average mass of 20 ± 3 g. Mice were injected with ^68Ga-X-RM2 (100 µL, 2.6 MBq) into the tail vein. The animals were sacrificed at 30, 60, and 120 min post-injection. Then the organs of interest were collected and weighed, and their radioactivity content was measured in a gamma counter.

| Structure (SMILES) | tissue to tissue ratio at 0.5 h (Tumour/blood ratio) | tissue to tissue ratio at 1 h (Tumour/blood ratio) | tissue to tissue ratio at 2 h (Tumour/blood ratio) | tissue to tissue ratio at 0.5 h (Tumour/bone ratio) | tissue to tissue ratio at 1 h (Tumour/bone ratio) | tissue to tissue ratio at 2 h (Tumour/bone ratio) | tissue to tissue ratio at 0.5 h (Tumour/kidneys ratio) | tissue to tissue ratio at 1 h (Tumour/kidneys ratio) | tissue to tissue ratio at 2 h (Tumour/kidneys ratio) | tissue to tissue ratio at 0.5 h (Tumour/liver ratio) | tissue to tissue ratio at 1 h (Tumour/liver ratio) | tissue to tissue ratio at 2 h (Tumour/liver ratio) | tissue to tissue ratio at 0.5 h (Tumour/muscle ratio) | tissue to tissue ratio at 1 h (Tumour/muscle ratio) | tissue to tissue ratio at 2 h (Tumour/muscle ratio) |
| --- | --- | --- | --- | --- | --- | --- | --- | --- | --- | --- | --- | --- | --- | --- | --- |
| CC(C)C[C@H](NC(=O)C[C@H](O)[C@H](CC(C)C)NC(=O)[C@H](Cc1c[nH]cn1)NC(=O)CNC(=O)[C@@H](NC(=O)[C@H](C)NC(=O)[C@H](Cc1c[nH]c2ccccc12)NC(=O)[C@H](CCC(N)=O)NC(=O)[C@@H](Cc1ccccc1)NC(=O)CN1CCC(NC(=O)CN2CCN(CC(=O)O)CCN(CC(=O)O)CCN(CC(=O)O)CC2)CC1)C(C)C)C(N)=O (68Ga complex, metal not drawn) [DOTA-RM2, reference compound] | 2.35 | 3.88 | 4.58 | 11.2 | 8.99 | 8.6 | 1.53 | 1.89 | 2.05 | 3.19 | 3.4 | 4 | 14.4 | 21.8 | 31.7 |
| CC(C)C[C@H](NC(=O)C[C@H](O)[C@H](CC(C)C)NC(=O)[C@H](Cc1c[nH]cn1)NC(=O)CNC(=O)[C@@H](NC(=O)[C@H](C)NC(=O)[C@H](Cc1c[nH]c2ccccc12)NC(=O)[C@H](CCC(N)=O)NC(=O)[C@@H](Cc1ccccc1)NC(=O)CN1CCC(NC(=O)CCCCC2(N(CC(=O)O)CC(=O)O)CN(CC(=O)O)CCN(CC(=O)O)C2)CC1)C(C)C)C(N)=O [AAZTA^5-RM2] | 3.53 | 8.38 | 15.6 | 21.8 | 36 | 57.5 | 1.2 | 1.41 | 1.31 | 6.04 | 7.55 | 5.92 | 10.3 | 37.6 | 60.7 |
| CC(C)C[C@H](NC(=O)C[C@H](O)[C@H](CC(C)C)NC(=O)[C@H](Cc1c[nH]cn1)NC(=O)CNC(=O)[C@@H](NC(=O)[C@H](C)NC(=O)[C@H](Cc1c[nH]c2ccccc12)NC(=O)[C@H](CCC(N)=O)NC(=O)[C@@H](Cc1ccccc1)NC(=O)CN1CCC(NC(=O)CCCCC2(N(C)CC(=O)O)CN(CC(=O)O)CCN(CC(=O)O)C2)CC1)C(C)C)C(N)=O [DATA^5m-RM2] | 4.23 | 14.6 | 18.2 | 16.2 | 29.3 | 50.2 | 1.73 | 2.2 | 2.41 | 5.86 | 7.57 | 6.09 | 25.4 | 56.8 | 62.2 |
